Test results from patent US20260053961A1, “HETERODIMER AND RADIOACTIVE MEDICAL USE THEREOF” (HEXIN (SUZHOU) PHARMACEUTICAL TECHNOLOGY CO., LTD., priority 2022, published 2026).

Key:
[1] = Stability study: in vitro incubation at constant temperature (37° C.) in PBS, LC-MS/MS; type: physicochemical
Procedure: (§1) The experiment was carried out by using an in vitro incubation method at a constant temperature (37° C.) to study the stability of the compound ([…]) from Example L11 in murine plasma or PBS. The compound obtained from Example L11 was dissolved in 1 mL of mouse serum, respectively, and incubated in vitro at a constant temperature for 0 h, 0.5 h, 1 h, 4 h, 24 h, and 48 h, and a percentage of drug remaining was then measured and determined. PBS was used as a negative control group. Peak areas of the drug and an internal standard were measured using an LC-MS/MS method, and ratios of the peaks were used instead of the drug concentration for calculation.

[2] = Stability study: in vitro incubation at constant temperature (37° C.) in murine plasma, LC-MS/MS; type: in vitro ADME
Procedure: as §1

[3] = system: BxPC3 tumor-bearing mice; test: PET/CT imaging of ^68Ga complexes in small animals; type: in vivo, NCr nude mice
Procedure: (§2) BxPC3 human pancreatic cancer cells are suspended in a mixture of 200 μL phosphate buffer and matrix gel (v/v, 1/1), and 2×10^6 cells were implanted subcutaneously into left shoulders of normal NCr nude mice (18-25 g, 4-6 weeks old). After an average of 1.5 weeks, a tumor diameter reached about 10 mm, which was sufficient for biodistribution and single-photon emission computed tomography-computed tomography (SPECT/CT) imaging studies.
(§3) PET-CT and image analysis were performed using a small-animal NovelMedcal PET-CT scanner (Beijing Yongxin). Maximum tangential and radial half-widths of the scanner in a center of field of view were 1.5 mm, and at an edge of the field of view were 1.8 mm.
(§4) About 100 μCi of each of the following complexes: ^68Ga-L00, ^68Ga-L11, ^68Ga-L12, ^68Ga-L13, and ^68Ga-L21, was injected into BxPC3 tumor-bearing mice via tail vein under isoflurane anesthesia, and each of the complexes was injected into four mice. Static PET-CT images were obtained for 15 min 0.5, 1, 2, 3, 4, 5 and 6 hours after intravenous injection. Distribution patterns of the five complexes at each time point were compared.
(§5) PET and CT images were acquired using NMSoft workstation software (Beijing Yongxin), and data were given as a percentage of injected dose per gram of tissue or organ (ID/g), and were determined through decay correction for each sample (standardized to a known weight of the injected dose. Normalization was performed during statistical analysis, and standardized uptake values (SUVs) were calculated according to the following formula: […]

[4] = PET/CT imaging of ^68Ga complexes in small animals; type: in vivo, NCr nude mice; conditions: NCr nude, mouse, in vivo, iv, 100 uCi, total radioactivity
Procedure: as §2, §3, §4, §5

Which “Percentage of drug remaining” value ([1]; 0 h) does the source give for C[C@@H](O)[C@@H]1NC(=O)[C@H](CCCNC(=N)N)NC(=O)CNC(=O)[C@H](CC(N)=O)NC(=O)[C@H](Cc2ccc(O)cc2)NC(=O)[C@H](CCCCNC(=O)CCOCCOCCOCCOCCNC(=O)OCC2C3CCc4nnn(CCC(C(=O)N[C@@H](CCCCNC(=O)CCC(=O)N[C@@H](CCCCNC(=O)CCCc5ccc(C(F)(F)F)cc5)C(=O)O)C(=O)NCCOCCOCCOCCOCCC(=O)NCCCC[C@@H]5NC(=O)[C@@H](Cc6ccccc6)NC(=O)[C@H](CC(=O)O)NC(=O)CNC(=O)[C@H](CCCNC(=N)N)NC5=O)N5CCN(CC(=O)O)CCN(CC(=O)O)CCN(CC(=O)O)CC5)c4CCC32)NC1=O (single isomer, unassigned) [Example L11, RGD-PEG4-Lys (—R—R1)-DOTA-click-PEG4-NGR] here?
The value was 100%.

And the remaining at 0.5 h, 1 g/mL ([1]; 0.5 h, read-out: Percentage of drug remaining)?
The remaining at 0.5 h, 1 g/mL was 99.3%.

What about the remaining at 1 h, 1 g/mL ([1]; 1 h, read-out: Percentage of drug remaining) of the same molecule?
The remaining at 1 h, 1 g/mL was 98.7%.

And the remaining at 4 h, 1 g/mL ([1]; 4 h, read-out: Percentage of drug remaining)?
The remaining at 4 h, 1 g/mL was 98.6%.

What about the remaining at 24 h, 1 g/mL ([1]; 24 h, read-out: Percentage of drug remaining) of the same molecule?
The remaining at 24 h, 1 g/mL was 98.3%.

And the remaining at 48 h, 1 g/mL ([1]; 48 h, read-out: Percentage of drug remaining)?
Its remaining at 48 h, 1 g/mL is 97.9%.

What about the remaining at 0.5 h, 1 g/mL ([2]; mouse, mouse plasma, murine plasma, 37° C., 0.5 h, read-out: Percentage of drug remaining) of the same molecule?
Its remaining at 0.5 h, 1 g/mL is 98.5%.

What about the remaining at 1 h, 1 g/mL ([2]; mouse, mouse plasma, murine plasma, 37° C., 1 h, read-out: Percentage of drug remaining) of the same molecule?
Its remaining at 1 h, 1 g/mL is 98.4%.

What about the remaining at 4 h, 1 g/mL ([2]; mouse, mouse plasma, murine plasma, 37° C., 4 h, read-out: Percentage of drug remaining) of the same molecule?
Its remaining at 4 h, 1 g/mL is 98%.

What about the remaining at 24 h, 1 g/mL ([2]; mouse, mouse plasma, murine plasma, 37° C., 24 h, read-out: Percentage of drug remaining) of the same molecule?
The remaining at 24 h, 1 g/mL was 93.4%.

And the remaining at 48 h, 1 g/mL ([2]; mouse, mouse plasma, murine plasma, 37° C., 48 h, read-out: Percentage of drug remaining)?
Its remaining at 48 h, 1 g/mL is 86.5%.

What about the “Percentage of drug remaining (summary statement)” value ([2]; murine plasma or PBS, in vitro incubation at constant temperature, over the study) of the same molecule?
The value was “above 95%”.

And the “Percentage of drug remaining” value ([2]; murine plasma, 37° C., 0 h)?
Its value is 100%.

What does the source list for C[C@@H](O)[C@@H]1NC(=O)[C@H](CCCNC(=N)N)NC(=O)CNC(=O)[C@H](CC(N)=O)NC(=O)[C@H](Cc2ccc(O)cc2)NC(=O)[C@H](CCCCNC(=O)CCOCCOCCOCCOCCNC(=O)OCC2C3CCc4nnn(CCC(C(=O)N[C@@H](CCCCNC(=O)CCC(=O)N[C@@H](CCCCNC(=O)CCCc5ccc(C(F)(F)F)cc5)C(=O)O)C(=O)NCCOCCOCCOCCOCCC(=O)NCCCC[C@@H]5NC(=O)[C@@H](Cc6ccccc6)NC(=O)[C@H](CC(=O)O)NC(=O)CNC(=O)[C@H](CCCNC(=N)N)NC5=O)N5CCN(CC(=O)O)CCN(CC(=O)O)CCN(CC(=O)O)CC5)c4CCC32)NC1=O (single isomer, unassigned) [^68Ga-L11, metal not drawn]?
tumor-to-kidney ratio, rank among the five complexes ([3]; MIP images and ROI regions): highest among the five conjugates; tumor-to-muscle ratio, rank among the five complexes ([3]; MIP images and ROI regions): highest among the five conjugates; tissue to tissue ratio at 6 h ([4]; about 6 hours after the injection, PET/CT, read-out: tumor-to-kidney ratio): ~1.4

Which “clearance of the drug” value ([3]; mouse, in vivo) does the source give for C[C@@H](O)[C@@H]1NC(=O)[C@H](CCCNC(=N)N)NC(=O)CNC(=O)[C@H](CC(N)=O)NC(=O)[C@H](Cc2ccc(O)cc2)NC(=O)[C@H](CCCCNC(=O)CCOCCOCCOCCOCCNC(=O)OCC2C3CCc4nnn(CCC(C(=O)N[C@@H](CCCCNC(=O)CCC(=O)N[C@@H](CCCCN)C(=O)O)C(=O)NCCOCCOCCOCCOCCC(=O)NCCCC[C@@H]5NC(=O)[C@@H](Cc6ccccc6)NC(=O)[C@H](CC(=O)O)NC(=O)CNC(=O)[C@H](CCCNC(=N)N)NC5=O)N5CCN(CC(=O)O)CCN(CC(=O)O)CCN(CC(=O)O)CC5)c4CCC32)NC1=O (stereo partly shown) [^68Ga-L00, metal not drawn] here?
Its value is “rapidly metabolized through the kidneys”.

What about the “signals in the tumor tissue over time” value ([3]; mouse, in vivo, iv) of the same molecule?
Its value is “gradually weakened”.

What about the tissue to tissue ratio at 2 h [4] of the same molecule?
The tissue to tissue ratio at 2 h was about 0.18.
